Source: patent US5717058, “Peptide inhibitors of tax-dependent transcription” (Somatogen, Inc.)

Key:
CREB = CREB (UniProt P16220 P16220:1-327); assay: EMSA; 3.4 nM CREB, 0.5 nM probe, 10 ng poly dIdC, 75 mM KCl, 6.25 mM MgCl2, room temp; reference without Tax; details: tags: heparin-agarose purified, prepared per Franklin et al. 1993; chain copies: 2; label: 32P end-label; cloned into pUC19 Bgl II site, 70 bp Kpn I-Hind III fragment used as probe
[1] = target: CREB + Tax (HTLV-I Tax enhances CREB binding) (/ HTLV-I, UniProt P16220;P03409 P16220:1-327,P03409:1-353); assay: EMSA; details: tags: Tax carries C-terminal His6 (TaxH6); label: 32P end-label; cloned into pUC19 Bgl II site, 70 bp Kpn I-Hind III fragment used as probe
CREB + Tax (HTLV-I Tax enhances CREB binding), sequence (P16220 whole entry, chain 1 of 2, the tested form may be a part): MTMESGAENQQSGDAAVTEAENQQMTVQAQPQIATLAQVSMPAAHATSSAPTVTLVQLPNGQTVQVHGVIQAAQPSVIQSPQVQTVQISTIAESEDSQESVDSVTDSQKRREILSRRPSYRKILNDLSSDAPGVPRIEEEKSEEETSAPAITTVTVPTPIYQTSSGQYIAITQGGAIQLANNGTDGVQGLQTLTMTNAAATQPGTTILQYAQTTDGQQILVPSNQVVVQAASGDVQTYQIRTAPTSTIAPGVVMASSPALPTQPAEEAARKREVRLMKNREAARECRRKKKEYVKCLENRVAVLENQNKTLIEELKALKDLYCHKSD
CREB + Tax (HTLV-I Tax enhances CREB binding), sequence (P03409 whole entry, chain 2 of 2, the tested form may be a part): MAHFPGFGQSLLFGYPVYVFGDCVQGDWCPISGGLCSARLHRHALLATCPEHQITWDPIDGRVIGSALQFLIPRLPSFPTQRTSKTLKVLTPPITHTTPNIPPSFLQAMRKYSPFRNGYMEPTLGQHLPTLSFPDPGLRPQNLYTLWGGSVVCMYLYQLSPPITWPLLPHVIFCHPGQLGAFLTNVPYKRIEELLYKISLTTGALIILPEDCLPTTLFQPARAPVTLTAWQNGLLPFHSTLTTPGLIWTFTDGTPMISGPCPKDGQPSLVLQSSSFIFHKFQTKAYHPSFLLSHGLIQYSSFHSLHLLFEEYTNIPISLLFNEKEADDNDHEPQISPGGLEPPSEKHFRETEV

CREB, sequence (P16220 whole entry, the tested form may be a part, one chain of several): as the sequence (P16220 whole entry, chain 1 of 2, the tested form may be a part) above

B1: HTLV-I third 21 bp repeat (site 3 probe) (dsDNA)
DNA 1: GATCTGGCGTTGACGACAACCCCA
DNA 2: TGGGGTTGTCGTCAACGCCAGATC
binding signal (CREB): 1 fold | binding signal [1]: 3.9 fold
